The text below walks through data of patent US20040121411.

Data set [1] deals with radiolabeled βAPP-C83 polypeptide mimic.
Data set [2] concerns radiolabeled βAPP-C100 polypeptide mimic.

Turning to “solubilized gamma-secretase complex (gamma-secretase associated with PS1) from HeLa cell membranes”, the “cleavage of 35S-labeled substrate, SDS-PAGE and phosphorimager” value in data set [1] was “The radiolabeled βAPP-C83 substrate was also cleaved by the gamma-secretase complexes present in the solubilized protein and protein complex preparation (FIG. 7) and the affinity enriched protein preparation, to yield a 6 kDa cleavage product”; in data set [2], “The radiolabeled βAPP-C100 substrate was cleaved by the gamma-secretase complexes present in the solubilized protein and protein complex preparation (FIGS. 6 and 7) and the affinity enriched protein preparation (FIG. 8), to yield a 6 kDa cleavage product”.
